{
  "source": "patent US20140308316A1",
  "about": "“ANTIGEN PRESENTING CANCER VACCINE WITH GAMMA INTERFERON” (CALIFORNIA STEM CELL, INC., priority 2011, published 2014)",
  "key": {"[1]": {"tested_on": "SK-5-Mel cells", "test": "Autophagy by flow cytometry with Enzo Cyto-ID Autophagy Detection Dye", "format": "cell-based", "settings": "for effect on autophagy in IFN-gamma treated cells: z-VAD 20 uM with 1000 IU/mL IFN-gamma, 72 hours", "description": "FIGS. 6A and 6B reveal apoptosis and autophagy induced in response to interferon-gamma. SK-5-Mel cells were incubated with 1000 IU/mL of IFN-gamma for 72 hours after which non-adherent and adherent populations were collected and assayed for apoptosis and autophagy by flow cytometry using 7-AAD and Annexin-V (FIG. 6A). Enzo Cyto-ID Autophagy Detection Dye was used to measure autophagy by flow cytometry by measuring the mean intensity peak shift of dye provided by the manufacturer (FIG. […]). Fold changes in the peak shift in comparison to 5% FBS/RPMI are shown in FIG. 6C with serum-free as positive control for the induction of autophagy.\nSK-5-Mel cells were treated with 1000 IU/mL of IFN-gamma in the presence of 20 uM of the pan-caspase inhibitor z-VAD or its control compound, z-FA for 72 hours. The cells were harvested and assayed for autophagy by flow cytometry as in FIG. 6C.\n(§1) The methodology of the study was as follows. Autologous and model melanoma tumor cell lines were incubated with 1000 IU/mL of IFN-gamma for 72 hours prior to assaying for autophagy, apoptosis and MHC class II expression. Autophagy was detected by immunobloting with antibodies against LC3 II and by flow cytometry with Enzo's CytoID® Autophagy Detection Kit. Apoptosis and MHC class II induction were assayed by flow cytometry using 7-AAD and annexin-V staining and antibodies against MHC class II, respectively.\n(§2) The commercially available melanoma cell lines A375, SK-Mel-5 and SK-Mel-28 were purchased from American Type Culture Collection (Catalogue numbers: CRL-1619, HTB-70, and HTB-72). A375, SK-Mel-5, and SK-Mel-28 were maintained in 5% fetal bovine serum in RPMI-1640 (Invitrogen, catalogue number 11875-085). […]\n(§3) What was investigated was the induction of autophagy, apoptosis and MHC class II molecules after IFN-gamma treatment of melanoma tumor cells in vitro. […] Autophagy was detected by immunobloting with antibodies against LC3 II and by flow cytometry with Enzo's CytoID Autophagy Detection Kit. […]"}, "[2]": {"tested_on": "melanoma cell lines", "test": "Apoptosis by flow cytometry using 7-AAD and annexin-V", "format": "cell-based", "settings": "pan caspase inhibitor with IFN-gamma", "description": "as §1\nAnalysis of tumor cell death and changes in major histocompatibility class II expression in response to IFN-gamma were conducted by use of antibodies directed against MHC class II, annexin-V and 7-amino-actinomycin D (7-AAD) and acquired on a Beckton-Dickenson FACS Calibur® flow cytometer.\nWhat was investigated was the induction of autophagy, apoptosis and MHC class II molecules after IFN-gamma treatment of melanoma tumor cells in vitro. Autologous and model melanoma tumor cell lines were incubated with 1000 IU/mL of IFN-gamma for 72 hours prior to assaying for autophagy, apoptosis and MHC class II expression. Autophagy was detected by immunobloting with antibodies against LC3 II and by flow cytometry with Enzo's CytoID Autophagy Detection Kit. […]"}, "[3]": {"tested_on": "MHC class I", "test": "Flow cytometry for MHC class I on IFN-gamma treated autologous tumor cells", "format": "cell-based, human", "settings": "1000 IU/mL IFN-gamma 72 hours, N=65, p=2.8×10^−8", "description": "(§4) FIGS. 2A-D show characterization of IFN-gamma treated autologous tumor cells used for loading dendritic cells. Autologous melanoma tumor cells were treated with or without 1000 IU/mL IFN-gamma for 72 hours in 15% FBS/ECS in RPMI, harvested and irradiated with 100 Gy and cryopreserved. Cells were then thawed in AIMV and a sample taken for flow cytometry and for preparation of cell lysates for immunoblotting prior to antigen loading of DCs. An example of four separate autologous melanoma cell lines is shown (FIG. 2A, FIG. 2B and FIG. 2C). Induction major histocompatibility complexes by IFN-gamma treatment of autologous tumor cells (FIG. 2D). Tumor cells were harvested after being treated with or without 1000 IU/mL IFN-gamma for 72 hours and then assayed for MHC class I and class II. Control isotype antibodies were used to identify positive populations. Dark data points indicate median mean fluorescent plus/minus 95% confidence interval, N=65. […]"}, "[4]": {"tested_on": "MHC class II", "test": "Flow cytometry for MHC class II on IFN-gamma treated autologous tumor cells", "format": "cell-based, human", "description": "as §4"}, "[5]": {"tested_on": "melanoma cell lines used in patient-specific dendritic cell therapy", "test": "Immunohistochemistry of tumor associated antigens in melanoma lines with or without IFN-gamma", "format": "cell-based, human", "settings": "1000 IU/mL IFN-gamma, 72 hours, N=27 samples", "description": "Expression of a panel antigens by melanoma lines were determined using immunocytochemical procedure. Ceils were cultured in 8-chamber culture slides (Thermo Fisher, Rochester, N.Y.) in the presence or absence of 1000 IU/mL IFN-gamma. After 72 hours, the cells were washed 3 times with 1× Phosphate Buffered Saline (PBS) and fixed in cold acetone. After blocking endogenous peroxidase, cells were incubated with appropriate primary antibodies against the antigens listed. Immunohistochemistry was performed using biotinylated antimouse or rabbit immunoglobulins. Super Sensitive enzyme-conjugated streptavidin labeling and horse radish peroxidase chromogen, and substrate kits (Biogenex, San Ramon, Calif.). The reactivity of the following anti-human polyclonal or monoclonal antibodies was investigated with isotype matched control antibody: S-100 and HMB-45 (Biogenex, San Ramon, Calif.), Mel-2, Mel-5, Mart-1 (Signet, Dedham, Mass.), Tyrosinase and Mage-1 (Thermo Scientific, Fremont, Calif.), Melan-A, HLA-class I and HLA-class II (Dako Denmark).\nTable I: Change in the expression level of common tumor associated antigens in response to interferon-gamma in melanoma cell lines used patient-specific cell based dendritic cell therapy."}, "[6]": {"tested_on": "autologous melanoma cell lines", "test": "Immunoblot of lysates from melanoma cells incubated with or without IFN-gamma", "format": "cell-based, human", "settings": "IFN-gamma treated vs untreated", "description": "FIGS. 2A-D show characterization of IFN-gamma treated autologous tumor cells used for loading dendritic cells. Autologous melanoma tumor cells were treated with or without 1000 IU/mL IFN-gamma for 72 hours in 15% FBS/ECS in RPMI, harvested and irradiated with 100 Gy and cryopreserved. Cells were then thawed in AIMV and a sample taken for flow cytometry and for preparation of cell lysates for immunoblotting prior to antigen loading of DCs. An example of four separate autologous melanoma cell lines is shown (FIG. 2A, FIG. 2B and FIG. 2C). Induction major histocompatibility complexes by IFN-gamma treatment of autologous tumor cells (FIG. 2D). Tumor cells were harvested after being treated with or without 1000 IU/mL IFN-gamma for 72 hours and then assayed for MHC class I and class II. Control isotype antibodies were used to identify positive populations. Dark data points indicate median mean fluorescent plus/minus 95% confidence interval, N=65.\nCytoplasmic cell lysates were prepared with Mammalian Protein Extraction Reagent (Thermo Scientific, Rockford, Ill.) plus protease inhibitor cocktail (Roche, Indianapolis, Ind.) at 10,000 cells/uL on ice. Approximately 25 uLs/lane of cell lysates were separated on 12.5% tris-glycine gels, transferred to PVDF membrane and probed with antibodies against the following: calreticulin (MBL, Woburn, Mass.), Hsp-60, Hsp-70, Hsp-90 (R&D Systems, Minneapolis, Minn.), HMBG-1 (Cell Signaling, Danvers, Mass.), ICAM-1 (Santa Cruz Biotech, Santa Cruz, Calif.), Mel-4, Mart-1 (Signet, Emeryville, Calif.), tyrosinase (Upstate, Lake Placid, N.Y.) and GADPH (Calbiochem, Darmstadt, Germany).\nLysates from cells that were incubated in the presence or absence of IFN-gamma were subjected to immunoblotting for a variety of molecules that may be important mediators of immunity (FIG. 1B). In the setting of melanoma cells treated with IFN-gamma, heat shock proteins appear to be differentially regulated but remain largely present in the cell preparations, especially in the case of hsp-70."}, "[7]": {"tested_on": "melanoma tumor cells", "test": "Sensitivity of IFN-gamma treated melanoma tumor cells to cytotoxic T lymphocyte activity", "format": "cell-based"}, "[8]": {"tested_on": "SK-5-Mel cells", "test": "MHC class II (HLA-DR) expression by flow cytometry with autophagy inhibitor 3-MA", "format": "cell-based", "settings": "1000 IU/mL IFN-gamma 72 hours; 3-MA 10 uM where present", "description": "The cells were then harvested and assayed for apoptosis and MHC class II (HLA-DR) expression by flow cytometry.\nas §1, §2, §3"}},
  "data": [
    {"molecule": "carbobenzoxy-valyl-alanyl-aspartyl-[O-methyl]-fluoromethylketone [Z-VAD]", "values": [
      {"measurement": "effect on autophagy in IFN-gamma treated cells", "setting": "[1]", "value": "does not perturb autophagy"},
      {"measurement": "effect on autophagy in IFN-gamma treated cells", "setting": "[1]; listed as z-VAD", "value": "did not affect"},
      {"measurement": "effect on apoptosis in IFN-gamma treated cells", "setting": "[2]", "value": "prevents apoptosis"}
    ]},
    {"molecule": "interferon-gamma (protein, UniProt P01579 24-161, looked up, interferon-gamma (InterMune), type II interferon, used at 1000 IU/mL for 72 hours on tumor cells) Interferon gamma: QDPYVKEAENLKKYFNAGHSDVADNGTLFLGILKNWKEESDRKIMQSQIVSFYFKLFKNFKDDQSIQKSVETIKEDMNVKFFNSNKKKRDDFEKLTNYSVTDLNVQRKAIHELIQVMAELSPAAKTGKRKRSQMLFRG", "values": [
      {"measurement": "MHC class I median fold induction (95% C.I.)", "setting": "[3]", "value": "2.91±1.13", "unit": "fold"},
      {"measurement": "MHC class II mean fluorescence intensity, median induction (95% C.I.)", "setting": "[4]; 1000 IU/mL IFN-gamma 72 hours, N=65, p=0.039", "value": "4.23±2.66"},
      {"measurement": "cases with MHC class II induction greater than two fold", "setting": "[4]; in response to IFN-gamma treatment", "value": 70, "unit": "%"},
      {"measurement": "Change after IFN-gamma treatment: None", "setting": "[5]; HMB-45", "value": 54.5, "unit": "%"},
      {"measurement": "Change after IFN-gamma treatment: Down", "setting": "[5]; MAGE-1", "value": 81.5, "unit": "%"},
      {"measurement": "Change after IFN-gamma treatment: None", "setting": "[5]; MAGE-1", "value": 38.5, "unit": "%"},
      {"measurement": "Change after IFN-gamma treatment: Down", "setting": "[5]; MART-1", "value": 85.2, "unit": "%"},
      {"measurement": "Change after IFN-gamma treatment: None", "setting": "[5]; MART-1", "value": 14.8, "unit": "%"},
      {"measurement": "Change after IFN-gamma treatment: Down", "setting": "[5]; Mel-2", "value": 53.8, "unit": "%"},
      {"measurement": "Change after IFN-gamma treatment: None", "setting": "[5]; Mel-2", "value": 48.2, "unit": "%"},
      {"measurement": "Change after IFN-gamma treatment: Down", "setting": "[5]; Mel-5", "value": 27.3, "unit": "%"},
      {"measurement": "Change after IFN-gamma treatment: None", "setting": "[5]; Mel-5", "value": 72.7, "unit": "%"},
      {"measurement": "Change after IFN-gamma treatment: Down", "setting": "[5]; Melan-A", "value": 70.8, "unit": "%"},
      {"measurement": "Change after IFN-gamma treatment: None", "setting": "[5]; Melan-A", "value": 29.2, "unit": "%"},
      {"measurement": "Change after IFN-gamma treatment: Down", "setting": "[5]; S-100", "value": 57.1, "unit": "%"},
      {"measurement": "Change after IFN-gamma treatment: None", "setting": "[5]; S-100", "value": 42.9, "unit": "%"},
      {"measurement": "Change after IFN-gamma treatment: Down", "setting": "[5]; Tyrosinase", "value": 80.0, "unit": "%"},
      {"measurement": "Change after IFN-gamma treatment: None", "setting": "[5]; Tyrosinase", "value": 40.0, "unit": "%"},
      {"measurement": "ICAM-1 expression", "setting": "[6]", "value": "significantly up-regulated"},
      {"measurement": "calreticulin and high-mobility group box-1 protein expression", "setting": "[6]", "value": "up-regulated in some cases"},
      {"measurement": "common melanoma antigens (mel-4, Mart-1 and tyrosinase) expression", "setting": "[6]", "value": "down regulated"},
      {"measurement": "sensitivity to cytotoxic T lymphocyte (CTL) activity", "setting": "[7]", "value": "more sensitive"},
      {"measurement": "MHC class II positive cells", "setting": "[8]", "value": 39.4, "unit": "%"},
      {"measurement": "autophagy, fold change", "setting": "[1]; 1000 IU/mL IFN-gamma 72 hours, z-VAD 20 uM where present, peak shift vs 5% FBS/RPMI", "value": "2.75±0.15", "unit": "fold change"}
    ]}
  ]
}
